The record followed here is patent publication US20090291088A1 (Biogen, published 2009).

The target in test [1] is T1, hIGF-1R-Fc mutant SD103 (D461A, V462T) (human, UniProt P08069 31-933).
T1 construct: not shown: C-terminal human IgG1-Fc tag
Nature of the test: SPR, Fab over captured mutant.

Test [2] has as its target T2, hIGF-1R-Fc mutant SD102 (E459A, S460A) (human, UniProt P08069 31-933).
T2 construct: not shown: C-terminal human IgG1-Fc tag
Nature of the test: SPR, Fab over captured mutant. Background: In SPR one partner is held on a chip, and binding of the other changes the refractive index at the surface.

In test [3] the target is T3, hIGF-1R-Fc mutant SD108 (H480E) (human, UniProt P08069 31-933).
T3 construct: not shown: C-terminal human IgG1-Fc tag
Briefly: SPR, Fab over captured mutant.

Test [4] addresses T4, hIGF-1R-Fc mutant SD110 (E533H) (human, UniProt P08069 31-933).
T4 construct: not shown: C-terminal human IgG1-Fc tag
Briefly: SPR, Fab over captured mutant.

The target in test [5] is T5, hIGF-1R-Fc mutant SD113 (E570A, I571T) (human, UniProt P08069 31-933).
T5 construct: not shown: C-terminal human IgG1-Fc tag
Briefly: SPR, Fab over captured mutant.

For test [6], the target named is T6, hIGF-1R-Fc mutant SD109 (Y482A, R483W) (human, UniProt P08069 31-933).
T6 construct: not shown: C-terminal human IgG1-Fc tag
Nature of the test: SPR, Fab over captured mutant.

In test [7] the target is T7, hIGF-1R-Fc mutant SD015 (H464E) (human, UniProt P08069 31-933).
T7 construct: not shown: C-terminal human IgG1-Fc tag
Briefly: SPR, Fab over captured mutant.

Test [8] deals with T8, hIGF-1R-Fc mutant SD104 (H464A) (human, UniProt P08069 31-933).
T8 construct: not shown: C-terminal human IgG1-Fc tag
Nature of the test: SPR, Fab over captured mutant.

The target in test [9] is T9, human IGF-1R(1-902)-His10 (human, UniProt P08069 31-932).
T9 construct: Cy5-labelled in tr-FRET; also called hIGF-1R-His10; IGF-1R-His
Briefly: SPR, Fab over captured IGF-1R-10His. As to the method:
All surface plasmon resonance (SPR) experiments were performed on a Biacore 3000 set to 25° C. using HBS-EP (Biacore, Cat. No. BR-1001-88) as the running buffer. A biotin-labeled anti-HisTag antibody (biotin-PENTA-His, Qiagen Cat. No. 34440) was immobilized to saturation on a Biacore SA chip (Cat. No. BR-1000-32) surface by injection at 500 nM in HBS-EP buffer. […] Subsequent to IGF-1R injections, flow rates were increased to 20 μL/min. A second, 130 μL injection of anti-IGF-1R antibody or Fab was performed to investigate interactions with the receptor. Each antibody and Fab was serially diluted from 64 nM to 0.5 nM to obtain concentration dependent kinetic binding curves. Each injection series was regenerated using 3×10 μL injections of 10 mM Acetate, pH 4.0, at 20 μL/min. Each curve was double referenced using (1) data obtained from a streptavidin surface devoid of IGF-1R and (2) data from a primary injection of IGF-1R followed by a secondary injection of HBS-EP buffer. The concentration series for each antibody and Fab was fit to the 1:1 binding model provided within the BiaEvaluation software of the manufacturer.
To obtain discrete affinities, Fab fragments of each antibody were generated using papain digestion as described above.

Test [10] addresses T10, human IGF-1R expressed on cells (human, UniProt P08069 31-1367).
T10 construct: On MCF-7 tumor cells or on 3T3/CHO transfectants; precursor is processed into alpha and beta subunits; Signal peptide 1-30 left out as stated; also called wild type IGF-1R; IGF-1R 3T3
Briefly: flow cytometry, MCF-7 cells. As to the method:
The ability of Fabs to bind to the wild type IGF-1R was determined by flowcytometry using MCF-7 tumor cell line.
MCF-7 cells (Human Breast Adenocarcinoma from NCI) were split 24 hours prior to the setup of the assay to obtain 70% confluent monolayer. Routinely, MCF-7 cell line was maintained within 20 passages. Cells were lifted with cell dissociation buffer (Gibco catalog #13151-014), counted, washed and adjusted to 1×10⁶ cells/ml and one ml of cells were then added to each tube (12×75 mm tube Falcon catalog# 352054). Cells were pelleted and supernatant removed by centrifugation at 1200 rpm for 5 min and 100 μl of diluted antibodies were then added to the cell pellet. Purified Fabs were tested at a starting concentration of either 210 or 60 μg/ml with 1:3 dilutions in FACS buffer, down to 0.001 μg/ml. FACS buffer used throughout the assay was PBS (without Ca++/Mg++) containing 1% BSA (Sigma catalog# A-7906; Sigma-Aldrich Corp. (St. Louis, Mo., USA)) and 0.1% Sodium Azide (Sigma catalog #S2002). […] Samples were allowed to incubate on ice for 1 hour and 15 minutes then were washed with 2 ml FACS buffer and centrifuged at 1200 rpm for 5 minutes at 4° C. The supernatant was aspirated and 100 μl of the secondary detection antibody was added to each corresponding tube in FACS buffer. Samples were then incubated for 30 minutes on ice, in the dark. Cells were washed as described above, then, re-suspended in […] FACS buffer per tube/sample.
Cells were stained for live cell determination with Propidium Iodide staining solution (PI for dead cell exclusion; BD Pharmingen catalog# 51-66211E or 556463; use at 1:500 final in FACS buffer). Samples were run on the FACSCalibur instrument (Becton Dickinson) with 10,000 live events collected per sample.
For orientation: In flow cytometry, cells or beads pass a laser one at a time.

Test [11] concerns the target T11, hIGF-1R-Fc mutant SD203 (N254A) (human, UniProt P08069 31-933).
T11 construct: not shown: C-terminal human IgG1-Fc tag
Briefly: SPR, antibody over captured mutant. As to the method: (§1) Surface plasmon resonance (SPR) experiments were performed on a Biacore 3000 instrument set to 25° C. […] The antibody sensorchip surfaces were prepared by injecting each antibody (diluted 100 μg/mL in 10 mM Acetate, pH 4.0) over EDC/NHS-activated sensorchip surfaces according to the standard protocol of the manufacturer. […] Both hIGF-1R-Fc and mIGF-1R-Fc proteins oligomerize due to the incorporation of two separate homodimeric regions (IGF-1R and IgG1-Fc). […] After, completion of the receptor-Fc loading step, flow rates were elevated to 5 μl/min. […] Dissociation was measured for 7 minutes after the antibody injections were complete. Finally, the flow rate was elevated to 30 μL/min and the chip surfaces were regenerated by 2×10 μL injections of 0.1 M glycine, pH 2.

Test [12] concerns the target T12, hIGF-1R-Fc mutant SD207 (G265Y) (human, UniProt P08069 31-933).
T12 construct: not shown: C-terminal human IgG1-Fc tag
Briefly: SPR, antibody over captured mutant. How it is done: as §1

For test [13], the target named is T13, human IGF-1R(1-903)-Fc (human, UniProt P08069 31-933).
T13 construct: Made by Biogen Idec; Multimerises through IGF-1R and Fc; also called hIGF-1R-Fc; IGF-1R-Fc; not shown: C-terminal human IgG1-Fc tag
Briefly: ELISA on hIGF-1R-Fc, competitor biotinylated M14-G11.

Test [14] deals with T13, human IGF-1R(1-903)-Fc. Nature of the test: ELISA on hIGF-1R-Fc, competitor Zenon-labelled αIR3. (ELISA stands for enzyme-linked immunosorbent assay.)
The target of test [15] is T14, hIGF-1R-Fc mutant SD012 (E303G) (human, UniProt P08069 31-933).
T14 construct: not shown: C-terminal human IgG1-Fc tag
Nature of the test: SPR, Fab over captured SD012. How it is done:
as §1

For test [16], the target named is T7, hIGF-1R-Fc mutant SD015 (H464E). Briefly: SPR, Fab over captured SD015.
Test [17] deals with T15, hIGF-1R-Fc mutant SD202 (D250S) (human, UniProt P08069 31-933).
T15 construct: not shown: C-terminal human IgG1-Fc tag
Nature of the test: SPR, Fab over captured mutant.

Test [18] has as its target T16, hIGF-1R-Fc mutant SD201 (D248A) (human, UniProt P08069 31-933).
T16 construct: not shown: C-terminal human IgG1-Fc tag
Briefly: SPR, Fab over captured mutant.

Test [19] addresses T17, hIGF-1R-Fc mutant SD008 (S257F) (human, UniProt P08069 31-933).
T17 construct: not shown: C-terminal human IgG1-Fc tag
Briefly: SPR, Fab over captured SD008. As to the method:
as §1

B1: M14-C03 Fab (Fab, V domains shown)
VH: EVQLLESGGGLVQPGGSLRLSCAASGFTFSKYMMSWVRQAPGKGLEWVSYISPSGGLTWYADSVKGRFTISRDNSKNTLYLQMNSLRAEDTAVYYCARDGARGYGMDVWGQGTTVTVSS
VL: DIQMTQSPATLSLSPGERATLSCRASQSVSSYLAWYQQKPGQAPRLLIYDASNRATGIPARFSGSGSGTDFTLTISSLEPEDFAVYYCQQRSNWPPEVTFGPGTKVDIK
notes: Human phage Fab, kappa
As a reminder, the Kd is the free concentration of one partner at which half of the binding sites on the other are occupied at equilibrium, for simple one-to-one binding. Broadly, the koff is the first-order rate constant of dissociation. Read a high koff as a short-lived complex. A word on the kon: it is the rate constant with which the complex forms. The low end stands for slower complex formation, the high end for faster complex formation. The EC50 is the concentration that produces a half-maximal response. A high value points to a need for much substance. B1: the binding result in test [1], in test [2], in [3], in test [4], in test [5] and in test [6] was “no binding (tested: 30 nM)” throughout. Moreover, the binding result in [7] and in [8] was “no binding (tested: 30 nM)” in each case. This molecule also returned a Kd in test [9] of 4.9 nM. The same molecule registered a koff in [9] of 0.00094 s⁻¹. Moreover, the kon in [9] came out at 190000 M⁻¹ s⁻¹. The molecule also yielded a concentration giving a half-maximal response (EC50) in test [10] of 25.4 nM.

B2: P1E2 (chimeric antibody) (antibody, human IgG4, V domains shown)
VH: QVQLQQPGAELVKPGASVKLSCKASGYTFTSYWMHWVKQRPGQGLEWIGEINPTYGRSNYNEKFKSKATLTVDKSSSTAYMQLSSLTSEDSAVYYCARLVRLRYFDVWGAGTTVTVSS
VL: DIVMTQAAFSNPVTLGTSASISCRSSKSLLHSNGITYLYWYLQKPGQSPQLLIYQMSNLASGVPDRFSSSGSGTDFTLRISRVEAEDVGVYYCAQNLELPYTFGGGTKLEIK
notes: also called chimeric antibody P1E2
For B2, the binding result in test [11] and in test [12] was “no binding (tested: 30 nM)” in each case. Moreover, the “percent competition (relative to self-competition)” value with human IGF-1R(1-903)-Fc [13] and in the test with human IGF-1R(1-903)-Fc [14] was 90 to 100% each time.

B3: M14-G11 Fab (Fab, V domains shown)
VH: EVQLLESGGGLVQPGGSLRLSCAASGFTFSNYPMYWVRQAPGKGLEWVSRISSSGGRTVYADSVKGRFTISRDNSKNTLYLQMNSLRAEDTAVYYCARDRWSRSAAEYGLGGYWGQGTLVTVSS
VL: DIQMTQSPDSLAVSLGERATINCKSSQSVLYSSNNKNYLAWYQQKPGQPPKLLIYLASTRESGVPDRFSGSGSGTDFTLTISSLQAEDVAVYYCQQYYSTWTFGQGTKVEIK
notes: Human phage Fab, kappa
In the case of B3, the “fold loss in affinity against wild-type” value in [15] and in [19] was around 3 fold each time. In addition, the values for the Kd in [16] and in test [9] were 4 to 6 nM and 4 nM, respectively. In addition, the binding result in test [17] and in test [18] was “no binding (tested: 30 nM)” throughout. This molecule also returned an off-rate constant (koff) in test [9] of 0.0012 s⁻¹. Also, the kon in [9] came to 300000 M⁻¹ s⁻¹. This molecule also yielded an EC50 in test [10] of 39.8 nM.
